These results are taken from article PMC10582448.

A value given as a limit tells only on which side of the number the result lay.

For this test, the target named is nucleosomes reconstituted in vitro from X. laevis core histones on biotinylated pKYB1 DNA (Xenopus laevis). Nature of the test: optical tweezers with confocal fluorescence microscopy; nucleosomes on pKYB1 DNA tethered between streptavidin beads, in 1–2 nM fluorescently labelled chaperone; force-extension curves 1–32 pN at 20 nm/s with kymographs at 4 Hz; binding events after unwrapping / at high force (>10 pN); 25 mM HEPES, 50 mM KCl, 0.1 mM EDTA, pH 7.5.

Chain of nucleophosmin 1, labelled with Alexa Fluor 532 (P06748 whole entry): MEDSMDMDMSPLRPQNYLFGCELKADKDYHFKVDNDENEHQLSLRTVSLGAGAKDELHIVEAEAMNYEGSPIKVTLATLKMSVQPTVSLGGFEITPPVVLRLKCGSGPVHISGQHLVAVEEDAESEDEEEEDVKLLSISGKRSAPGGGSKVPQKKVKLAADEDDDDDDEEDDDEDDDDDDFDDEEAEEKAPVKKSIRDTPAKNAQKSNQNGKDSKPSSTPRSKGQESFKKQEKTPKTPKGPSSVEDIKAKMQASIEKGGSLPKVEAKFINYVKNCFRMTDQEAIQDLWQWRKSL

Turning to “nucleophosmin 1, labelled with Alexa Fluor 532 (from UniProt P06748 1-294) (natural protein)”, the percent of the chaperone binding events found after complete unwrapping is over 90%. “SET/template‐activating factor‐Iβ Q69C, labelled with Alexa Fluor 532 (from UniProt Q01105-2 1-277) (natural protein)” displayed a percent of the chaperone binding events found after complete unwrapping of over 90%.
